By stoichiometry N is commonly meant the number of molecules, sites or subunits per partner or assembly.

For this assay, the target named is Bmp8. Nature of the assay: SEC. Background: SEC sorts molecules by how far they enter the pores of the column.

The substance Bmp8 (enzyme) registered a stoichiometry N of 2.

For the origin of these results see article PMC6872904.
